The values that follow come from publication PMC5897418, “A Synthesized Glucocorticoid- Induced Leucine Zipper Peptide Inhibits Retinal Müller Cell Gliosis” (Frontiers in Pharmacology, 2018).

No end group written: not given here.

The test system of data set [1] is Müller cells. The settings on record: 10 μM FITC-labeled GILZ-p, 15 min, serum-starved primary rat Müller cells, flow cytometry. As for the experimental part: Müller cells were cultured on 6-well plates and starved in serum-free DMEM F12 for 24 h.
Müller cells were cultured on 6-well plates and starved in serum-free DMEM F12 for 24 h. […] Click here for additional data file.

Data set [2] relates to Müller cells. The conditions noted are these: 10 μM FITC-labeled GILZ-p, 6 and 12 h, confocal immunofluorescence. As for the experimental part: Müller cells were cultured on 6-well plates and starved in serum-free DMEM F12 for 24 h. The cells were then treated with 10 μM fluorescein isothiocyanate (FITC)-labeled GILZ-p for 6 and 12 h, respectively. After treatment, the Müller cells were washed with PBS, fixed in 4% paraformaldehyde (Sigma-Aldrich Corp., St. Louis, MO, United States), and permeabilized in 0.1% Triton X-100 (Promega, Madison, WI, United States) for 10 min. The cells were counterstained with 4′6-diamidino-2-phenylindole (DAPI) (Sigma-Aldrich Corp.) and examined under a laser confocal microscope (Leica Microsystems, Wetzlar, Hesse-Darmstadt, Germany).

Data set [3] relates to Müller cells. The conditions noted are these: 10, 50, 100, and 150 μM, 24 h, primary rat Müller cells, n = 6, compared with control group. The method, then:
The viability of Müller cells was determined by the cell counting kit-8 (CCK-8) assay. Briefly, 0.5 × 10^5 cells per well were seeded in 96-well plates and allowed to attach overnight. Then, the culture media were replaced with fresh media containing different concentrations of GILZ-p (0, 10, 50, 100, and 150 μM). After 24 h, 10 μL CCK-8 (Dojindo, Kumamoto, Japan) solution was added to each well, and the plates were incubated for another 2 h. Measurements of optical density were obtained at a wavelength of 450 nm using a spectrophotometer.

The conditions of data set [4]: water and culture medium.
In data set [5] the target is nuclear factor (NF)-κB p65 (rat (endogenous in primary retinal …, UniProt Q7TQN4 1-550)). The experiment in a line: cell-based or functional assay.
Chain of nuclear factor (NF)-κB p65 (rat (Q7TQN4 whole entry): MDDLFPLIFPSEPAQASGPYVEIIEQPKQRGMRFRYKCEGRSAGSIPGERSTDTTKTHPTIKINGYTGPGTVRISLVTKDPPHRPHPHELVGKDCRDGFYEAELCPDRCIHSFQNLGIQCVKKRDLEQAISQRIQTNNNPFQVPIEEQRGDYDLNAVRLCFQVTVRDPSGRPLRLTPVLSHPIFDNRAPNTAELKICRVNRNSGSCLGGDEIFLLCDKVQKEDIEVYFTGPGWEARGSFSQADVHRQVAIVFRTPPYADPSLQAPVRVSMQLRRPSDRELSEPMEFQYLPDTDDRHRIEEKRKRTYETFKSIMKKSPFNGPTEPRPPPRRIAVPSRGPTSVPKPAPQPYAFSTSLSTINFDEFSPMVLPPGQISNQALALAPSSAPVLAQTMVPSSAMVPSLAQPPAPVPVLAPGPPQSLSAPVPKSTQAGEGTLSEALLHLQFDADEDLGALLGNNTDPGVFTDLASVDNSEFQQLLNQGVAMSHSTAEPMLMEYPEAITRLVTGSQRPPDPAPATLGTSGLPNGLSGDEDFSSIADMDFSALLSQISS

As to “YGRKKRRQRRRKTLASPEQLEKFQSRLSPEEPAPEAPETPEAPGGSAV [GILZ-p]”, in the data set with Müller cells [1], the “Müller cells associated with GILZ-p” value is “about 7.92%”. Further, the “intracellular localisation of GILZ-p” value in the data set on Müller cells [2] is “aggregated in the cytoplasm”. For the same molecule, the “cytotoxicity (cell viability, CCK-8)” value in the data set with Müller cells [3] is given as “no detectable toxicity”. Further, the solubility entry in data set [4] is “water-soluble and fully dissolved in culture medium”.
For YGRKKRRQRRRKTLASPEQLEKFQSRLSPEEPAPEAPETPEAPGGSAV [His-tag-GILZ-p (TAT-GILZ 98-134 peptide with a C-terminal 6x His tag)], in data set [5], the “IC50 of GILZ-p (without the His tag) for inhibiting LPS-induced ICAM-1 expression in Müller cells (western blot, 24 h)” value came out at 7.13 µM; the “IC50 of GILZ-p (without the His tag) for inhibiting LPS-induced IL-1β expression in Müller cells (western blot, 24 h)” value amounted to 8.93 µM; the “IC50 of GILZ-p (without the His tag) for inhibiting LPS-induced MCP-1 expression in Müller cells (western blot, 24 h)” value is 5.82 µM; the “IC50 of GILZ-p (without the His tag) for inhibiting LPS-induced TNFα expression in Müller cells (western blot, 24 h)” value amounted to 8.77 µM. For the same molecule, in data set [5], the “IC50 of GILZ-p (without the His tag) for inhibiting the LPS-induced downregulation of AQP4 in Müller cells (western blot, 24 h)” value is 2.32 µM and the “IC50 of GILZ-p (without the His tag) for inhibiting the LPS-induced upregulation of GFAP in Müller cells (western blot, 24 h)” value was 11.2 µM.
